Laboratory results taken from PMC314469, “Protein Interaction Networks by Proteome Peptide Scanning” (PLoS Biology, 2004).

What was measured:
[1] = biological target: endophilin SH3 (SH3G2_HUMAN), Q99962; experiment: SPOT array
[2] = biological target: T1, amphyphisin SH3 (AMPH_HUMAN), P49418; experiment: SPOT array
T1 chain: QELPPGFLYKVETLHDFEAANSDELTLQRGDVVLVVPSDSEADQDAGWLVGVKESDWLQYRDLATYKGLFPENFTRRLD

## PSPGPSRPPHGTQA [P43681 443-457]
[1]
  normalised SPOT signal, Boehringer light units (BLU); mean over the file's lines of this peptide: 128
[2]
  normalised SPOT signal, Boehringer light units (BLU); mean over the file's lines of this peptide: 47

## PRRRPGRPRKLPRL [Q9H4Z2 347-360]
[1]
  normalised SPOT signal, Boehringer light units (BLU); mean over the file's lines of this peptide: 96
[2]
  normalised SPOT signal, Boehringer light units (BLU); mean over the file's lines of this peptide: 32.5

## PRQPPSRPPRRPPW [Q99785 93-107]
[1]
  normalised SPOT signal, Boehringer light units (BLU); mean over the file's lines of this peptide: 8300
[2]
  normalised SPOT signal, Boehringer light units (BLU); mean over the file's lines of this peptide: 6780

## ASQSPKKPPAKDPL [Q9NTY7 879-893]
[1]
  normalised SPOT signal, Boehringer light units (BLU); mean over the file's lines of this peptide: 60.6
[2]
  normalised SPOT signal, Boehringer light units (BLU); mean over the file's lines of this peptide: 57.6

## PSGHIKRPMNAFMV [Q06945 55-68]
[1]
  normalised SPOT signal, Boehringer light units (BLU); mean over the file's lines of this peptide: 75.8
[2]
  normalised SPOT signal, Boehringer light units (BLU); mean over the file's lines of this peptide: 47.9

## PSFHIKRPAPRPLA [O60890 702-715]
[1]
  normalised SPOT signal, Boehringer light units (BLU); mean over the file's lines of this peptide: 61.1
[2]
  normalised SPOT signal, Boehringer light units (BLU); mean over the file's lines of this peptide: 18.2

## ASPTPKRPSENMLI [O75592 2352-2365]
[1]
  normalised SPOT signal, Boehringer light units (BLU); mean over the file's lines of this peptide: 43.3
[2]
  normalised SPOT signal, Boehringer light units (BLU); mean over the file's lines of this peptide: 43.4

## PRPTPRRPRPRLAR [Q9GZW5 261-274]
[1]
  normalised SPOT signal, Boehringer light units (BLU); mean over the file's lines of this peptide: 1950
[2]
  normalised SPOT signal, Boehringer light units (BLU); mean over the file's lines of this peptide: 928

## PSPLPPKPPFPGPG [Q8WVQ3 114-128]
[1]
  normalised SPOT signal, Boehringer light units (BLU); mean over the file's lines of this peptide: 843
[2]
  normalised SPOT signal, Boehringer light units (BLU); mean over the file's lines of this peptide: 43.5

## PSDLPKKPPKPEFG [Q96QH2 28-42]
[1]
  normalised SPOT signal, Boehringer light units (BLU); mean over the file's lines of this peptide: 258
[2]
  normalised SPOT signal, Boehringer light units (BLU); mean over the file's lines of this peptide: 16.4

## PRRGPPRPPGLPYP [AAH31882 46-60]
[1]
  normalised SPOT signal, Boehringer light units (BLU); mean over the file's lines of this peptide: 7980
[2]
  normalised SPOT signal, Boehringer light units (BLU); mean over the file's lines of this peptide: 1100

## PSRPPSRPSRPPSH [Q99700 584-597]
[1]
  normalised SPOT signal, Boehringer light units (BLU); mean over the file's lines of this peptide: 11400
[2]
  normalised SPOT signal, Boehringer light units (BLU); mean over the file's lines of this peptide: 11900

## PSAPPAKPPSTQRA [O60904 189-203]
[1]
  normalised SPOT signal, Boehringer light units (BLU); mean over the file's lines of this peptide: 254
[2]
  normalised SPOT signal, Boehringer light units (BLU); mean over the file's lines of this peptide: 53.9

## PSLLPPRPPPALSL [Q9NRR6 185-199]
[1]
  normalised SPOT signal, Boehringer light units (BLU); mean over the file's lines of this peptide: 5800
[2]
  normalised SPOT signal, Boehringer light units (BLU); mean over the file's lines of this peptide: 82.9

## PSQPPPRPPPDYLR [Q9H013 786-800]
[1]
  normalised SPOT signal, Boehringer light units (BLU); mean over the file's lines of this peptide: 1790
[2]
  normalised SPOT signal, Boehringer light units (BLU); mean over the file's lines of this peptide: 68.9

## PRSVFLRPQRNLES [Q9Y2L9 614-627]
[1]
  normalised SPOT signal, Boehringer light units (BLU); mean over the file's lines of this peptide: 211
[2]
  normalised SPOT signal, Boehringer light units (BLU); mean over the file's lines of this peptide: 3830

## PSGPPARPSRSMWD [Q9NXK1 363-376]
[1]
  normalised SPOT signal, Boehringer light units (BLU); mean over the file's lines of this peptide: 2740
[2]
  normalised SPOT signal, Boehringer light units (BLU); mean over the file's lines of this peptide: 3350

## PRTLPRRPYKVLLA [O75064 398-411]
[1]
  normalised SPOT signal, Boehringer light units (BLU); mean over the file's lines of this peptide: 865
[2]
  normalised SPOT signal, Boehringer light units (BLU); mean over the file's lines of this peptide: 109

## PSIIFRRPEEAALS [Q9BZD6 162-175]
[1]
  normalised SPOT signal, Boehringer light units (BLU); mean over the file's lines of this peptide: 48.3
[2]
  normalised SPOT signal, Boehringer light units (BLU); mean over the file's lines of this peptide: 34.1

## PSLRPLKPPPPPRQ [Q96DL6 53-67]
[1]
  normalised SPOT signal, Boehringer light units (BLU); mean over the file's lines of this peptide: 4590
[2]
  normalised SPOT signal, Boehringer light units (BLU); mean over the file's lines of this peptide: 876

## PSNPIRRPISADSA [Q00610 58-71]
[1]
  normalised SPOT signal, Boehringer light units (BLU); mean over the file's lines of this peptide: 47.5
[2]
  normalised SPOT signal, Boehringer light units (BLU); mean over the file's lines of this peptide: 35.4

## PSMDFNRPGKRAPW [Q9UFP0 807-820]
[1]
  normalised SPOT signal, Boehringer light units (BLU); mean over the file's lines of this peptide: 460
[2]
  normalised SPOT signal, Boehringer light units (BLU); mean over the file's lines of this peptide: 77.6

## PSRLPRRPNDIYVN [O75817 27-40]
[1]
  normalised SPOT signal, Boehringer light units (BLU); mean over the file's lines of this peptide: 41.9
[2]
  normalised SPOT signal, Boehringer light units (BLU); mean over the file's lines of this peptide: 38.8

## PSQVPRRPHHTPFQ [Q9HBS1 152-165]
[1]
  normalised SPOT signal, Boehringer light units (BLU); mean over the file's lines of this peptide: 1670
[2]
  normalised SPOT signal, Boehringer light units (BLU); mean over the file's lines of this peptide: 43.1

## PSPNFKRPYQRFQW [Q9HBF9 133-146]
[1]
  normalised SPOT signal, Boehringer light units (BLU); mean over the file's lines of this peptide: 71.3
[2]
  normalised SPOT signal, Boehringer light units (BLU); mean over the file's lines of this peptide: 43.9

## ASPSLERPEKGAGK [Q13601 2-15]
[1]
  normalised SPOT signal, Boehringer light units (BLU); mean over the file's lines of this peptide: 175
[2]
  normalised SPOT signal, Boehringer light units (BLU); mean over the file's lines of this peptide: 15

## ASPRLRRPKSPKLP [Q96DR7 104-117]
[1]
  normalised SPOT signal, Boehringer light units (BLU); mean over the file's lines of this peptide: 35
[2]
  normalised SPOT signal, Boehringer light units (BLU); mean over the file's lines of this peptide: 110

## PSPSPARPPGTSPP [Q8TDP0 823-837]
[1]
  normalised SPOT signal, Boehringer light units (BLU); mean over the file's lines of this peptide: 67.6
[2]
  normalised SPOT signal, Boehringer light units (BLU); mean over the file's lines of this peptide: 31.2

## PRPSPARPKKSEES [O94836 564-577]
[1]
  normalised SPOT signal, Boehringer light units (BLU); mean over the file's lines of this peptide: 265
[2]
  normalised SPOT signal, Boehringer light units (BLU); mean over the file's lines of this peptide: 101

## PSRPPRRPPWGRGS [Q99785 97-111]
[1]
  normalised SPOT signal, Boehringer light units (BLU); mean over the file's lines of this peptide: 12300
[2]
  normalised SPOT signal, Boehringer light units (BLU); mean over the file's lines of this peptide: 10100

## PRRPPPRPPSRLSM [Q9BVH8 778-792]
[1]
  normalised SPOT signal, Boehringer light units (BLU); mean over the file's lines of this peptide: 32000
[2]
  normalised SPOT signal, Boehringer light units (BLU); mean over the file's lines of this peptide: 27600

## PRVDPYRPVRLPMQ [Q93074 1800-1813]
[1]
  normalised SPOT signal, Boehringer light units (BLU); mean over the file's lines of this peptide: 175
[2]
  normalised SPOT signal, Boehringer light units (BLU); mean over the file's lines of this peptide: 327

## PSPALPRPSRSSPG [Q9UPX1 609-622]
[1]
  normalised SPOT signal, Boehringer light units (BLU); mean over the file's lines of this peptide: 2060
[2]
  normalised SPOT signal, Boehringer light units (BLU); mean over the file's lines of this peptide: 778

## PSESLPRPRRPLPT [Q9P0U4 228-241]
[1]
  normalised SPOT signal, Boehringer light units (BLU); mean over the file's lines of this peptide: 405
[2]
  normalised SPOT signal, Boehringer light units (BLU); mean over the file's lines of this peptide: 264

## PSARPARPPRVRGP [O60342 30-44]
[1]
  normalised SPOT signal, Boehringer light units (BLU); mean over the file's lines of this peptide: 21500
[2]
  normalised SPOT signal, Boehringer light units (BLU); mean over the file's lines of this peptide: 16100

## PTSSPHRPHRLPLA [O95327 205-218]
[1]
  normalised SPOT signal, Boehringer light units (BLU); mean over the file's lines of this peptide: 166
[2]
  normalised SPOT signal, Boehringer light units (BLU); mean over the file's lines of this peptide: 248

## PSDHIKRPMNAFMV [O95416 4-17]
[1]
  normalised SPOT signal, Boehringer light units (BLU); mean over the file's lines of this peptide: 85
[2]
  normalised SPOT signal, Boehringer light units (BLU); mean over the file's lines of this peptide: 16.2

## PSRFIRRPSTTISP [O75916 510-523]
[1]
  normalised SPOT signal, Boehringer light units (BLU); mean over the file's lines of this peptide: 364
[2]
  normalised SPOT signal, Boehringer light units (BLU); mean over the file's lines of this peptide: 42

## PSNPPPRPPAEARK [P13498 150-164]
[1]
  normalised SPOT signal, Boehringer light units (BLU); mean over the file's lines of this peptide: 991
[2]
  normalised SPOT signal, Boehringer light units (BLU); mean over the file's lines of this peptide: 182

## PRQLLTRPHKAEDF [Q99973 2038-2051]
[1]
  normalised SPOT signal, Boehringer light units (BLU); mean over the file's lines of this peptide: 198
[2]
  normalised SPOT signal, Boehringer light units (BLU); mean over the file's lines of this peptide: 104

## PTEGPRRPPPRPPS [Q9BVH8 774-788]
[1]
  normalised SPOT signal, Boehringer light units (BLU); mean over the file's lines of this peptide: 3050
[2]
  normalised SPOT signal, Boehringer light units (BLU); mean over the file's lines of this peptide: 3310

## PSQVPPRPPPPRLP [Q9UDM5 470-484]
[1]
  normalised SPOT signal, Boehringer light units (BLU); mean over the file's lines of this peptide: 12300
[2]
  normalised SPOT signal, Boehringer light units (BLU); mean over the file's lines of this peptide: 2340
